Measured values reported in US20100040604A1.

Key:
[1] = target: recombinant human TNFα (rhTNFα) (human) (UniProt P01375); test: SPR (BIAcore), biotinylated rhTNFα on streptavidin chip; [Ab] 50 nM
[2] = target: recombinant human TNFα (rhTNFα) (human) (UniProt P01375); test: SPR (BIAcore), biotinylated rhTNFα on streptavidin chip; [Ab] 25 nM
[3] = target: recombinant human TNFα (rhTNFα) (human) (UniProt P01375); test: cell-based or functional assay
[4] = target: recombinant human TNFα (rhTNFα) (human) (UniProt P01375); test: SPR (BIAcore), biotinylated rhTNFα on streptavidin chip; [Ab] 400 nM
[5] = target: recombinant human TNFα (rhTNFα) (human) (UniProt P01375); test: SPR (BIAcore), biotinylated rhTNFα on streptavidin chip; [Ab] 6 nM
[6] = target: recombinant human TNFα (rhTNFα) (human) (UniProt P01375); test: SPR (BIAcore), biotinylated rhTNFα on streptavidin chip; [Ab] 200 nM
[7] = target: recombinant human TNFα (rhTNFα) (human) (UniProt P01375); test: SPR (BIAcore), biotinylated rhTNFα on streptavidin chip; average over the concentrations
[8] = target: recombinant human TNFα (rhTNFα) (human) (UniProt P01375); test: SPR (BIAcore), biotinylated rhTNFα on streptavidin chip; [Ab] 3 nM
[9] = target: recombinant human TNFα (rhTNFα) (human) (UniProt P01375); test: SPR (BIAcore), biotinylated rhTNFα on streptavidin chip; [Ab] 13 nM
[10] = target: recombinant human TNFα (rhTNFα) (human) (UniProt P01375); test: SPR (BIAcore), biotinylated rhTNFα on streptavidin chip; [Ab] 100 nM
[11] = target: recombinant human TNFα (rhTNFα) (human) (UniProt P01375); test: SPR (BIAcore), summary table

Chain of recombinant human TNFα (rhTNFα) (human) (P01375 77-233 limits assumed): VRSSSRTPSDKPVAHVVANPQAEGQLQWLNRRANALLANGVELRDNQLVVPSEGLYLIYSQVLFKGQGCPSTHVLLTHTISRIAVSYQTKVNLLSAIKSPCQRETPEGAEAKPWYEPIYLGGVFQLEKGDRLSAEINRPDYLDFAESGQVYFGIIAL

MAK 195 F(ab′)2 fragment (murine anti-hTNFα mAb)
Ab, bound, RUs [1]: 1110 RU | koff [1]: 3.67e-05 s⁻¹ | rhTNFα/Ab [1]: 1.32 | Ab, bound, RUs [2]: 957 RU | koff [2]: 4.41e-05 s⁻¹ | rhTNFα/Ab [2]: 1.09 | IC50, neutralization of TNFα-induced L929 cytotoxicity [3]: 0.062 nM | Ab, bound, RUs [4]: 881 RU | koff [4]: 5.38e-05 s⁻¹ | rhTNFα/Ab [4]: 1.2 | Ab, bound, RUs [5]: 433 RU | koff [5]: 7.37e-05 s⁻¹ | rhTNFα/Ab [5]: 0.47 | Ab, bound, RUs [6]: 1080 RU | koff [6]: 4.54e-05 s⁻¹ | rhTNFα/Ab [6]: 1.38 | koff [7]: 4.94e-05 s⁻¹ | Ab, bound, RUs [8]: 231 RU | koff [8]: 6.95e-05 s⁻¹ | rhTNFα/Ab [8]: 0.26 | Ab, bound, RUs [9]: 708 RU | koff [9]: 3.66e-05 s⁻¹ | rhTNFα/Ab [9]: 0.78 | Ab, bound, RUs [10]: 1140 RU | koff [10]: 3.54e-05 s⁻¹ | rhTNFα/Ab [10]: 1.39 | Kd [11]: 0.46 nM | Stoichiometry [11]: 1.4 | koff [11]: 8.7e-05 s⁻¹ | kon [11]: 190000 M⁻¹ s⁻¹
